The target of experiment [1] is MC3R mutant I265^6.58Y (human) (UniProt P41968).
Experiment [2] deals with MC3R mutant I265^6.58M (human) (UniProt P41968).
Experiment [3] concerns the target MC3R mutant I265^6.58W (human) (UniProt P41968).
Experiment [4] has as its target MC3R mutant F45^1.39A (human) (UniProt P41968).
Experiment [5] has as its target MC3R mutant F258^6.51A (human) (UniProt P41968).
For experiment [6], the target named is MC3R mutant D121^3.29A (human) (UniProt P41968).
Experiment [7] deals with MC3R mutant H261^6.54A (human) (UniProt P41968).
MC3R mutant H261^6.54A (human), sequence (P41968 other isoform, or with tags, fused parts or gaps mutant): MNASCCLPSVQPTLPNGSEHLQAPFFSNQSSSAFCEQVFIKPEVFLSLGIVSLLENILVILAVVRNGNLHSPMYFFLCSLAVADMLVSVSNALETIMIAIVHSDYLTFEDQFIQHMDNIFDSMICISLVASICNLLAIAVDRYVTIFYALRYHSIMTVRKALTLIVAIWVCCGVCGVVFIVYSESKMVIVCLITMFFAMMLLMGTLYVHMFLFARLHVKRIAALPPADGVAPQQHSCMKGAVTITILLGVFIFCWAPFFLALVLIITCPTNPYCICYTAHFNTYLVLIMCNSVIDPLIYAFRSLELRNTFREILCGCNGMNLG
Experiment [8] concerns the target MC3R mutant I180^4.61A (human) (UniProt P41968).
The target in experiment [9] is MC3R mutant F45^1.39A (human) (UniProt P41968). This is another data set of the same source.
MC3R mutant F45^1.39A (human), sequence (P41968 other isoform, or with tags, fused parts or gaps mutant): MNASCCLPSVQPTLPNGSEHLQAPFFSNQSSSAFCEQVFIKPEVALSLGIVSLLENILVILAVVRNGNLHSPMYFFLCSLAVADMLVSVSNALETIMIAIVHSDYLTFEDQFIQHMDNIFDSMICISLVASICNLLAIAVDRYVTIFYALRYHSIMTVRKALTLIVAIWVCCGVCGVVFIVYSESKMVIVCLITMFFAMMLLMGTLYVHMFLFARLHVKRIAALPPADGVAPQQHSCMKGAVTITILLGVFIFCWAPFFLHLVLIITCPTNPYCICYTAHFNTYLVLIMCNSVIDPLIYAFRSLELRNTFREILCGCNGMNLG
In experiment [10] the target is wild-type MC3R on cells (human) (UniProt P41968).
wild-type MC3R on cells (human), sequence (P41968 whole entry): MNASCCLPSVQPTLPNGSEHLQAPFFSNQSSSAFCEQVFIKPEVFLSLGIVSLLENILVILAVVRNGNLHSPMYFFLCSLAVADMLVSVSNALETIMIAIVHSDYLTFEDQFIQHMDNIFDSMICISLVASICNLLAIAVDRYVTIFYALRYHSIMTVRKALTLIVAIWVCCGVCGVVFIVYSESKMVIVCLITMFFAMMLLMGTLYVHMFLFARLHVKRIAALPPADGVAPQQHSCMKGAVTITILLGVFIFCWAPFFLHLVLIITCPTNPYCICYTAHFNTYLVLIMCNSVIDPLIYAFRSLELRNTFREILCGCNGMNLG
The target in experiment [11] is wild-type MC1R on cells (UniProt Q01726).
wild-type MC1R on cells, sequence (Q01726 whole entry): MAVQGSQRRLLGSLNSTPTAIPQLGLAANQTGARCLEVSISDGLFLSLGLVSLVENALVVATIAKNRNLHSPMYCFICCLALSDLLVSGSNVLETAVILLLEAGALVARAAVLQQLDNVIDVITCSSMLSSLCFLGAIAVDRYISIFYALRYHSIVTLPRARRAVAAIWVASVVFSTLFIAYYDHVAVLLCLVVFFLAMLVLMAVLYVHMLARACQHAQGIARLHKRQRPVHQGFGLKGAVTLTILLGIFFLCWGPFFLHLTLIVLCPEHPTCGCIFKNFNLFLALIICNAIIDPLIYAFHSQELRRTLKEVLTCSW
Experiment [12] deals with wild-type MC2R on cells (UniProt Q01718).
wild-type MC2R on cells, sequence (Q01718 whole entry): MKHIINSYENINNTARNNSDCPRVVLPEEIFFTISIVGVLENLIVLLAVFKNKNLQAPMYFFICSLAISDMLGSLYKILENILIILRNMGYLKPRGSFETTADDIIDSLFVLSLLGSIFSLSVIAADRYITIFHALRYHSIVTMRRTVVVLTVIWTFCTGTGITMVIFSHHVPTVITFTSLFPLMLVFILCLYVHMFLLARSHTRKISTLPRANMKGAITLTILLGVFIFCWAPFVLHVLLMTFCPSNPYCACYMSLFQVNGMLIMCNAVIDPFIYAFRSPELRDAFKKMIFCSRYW
The test system of experiment [13] is MC5R. Put plainly: Effect of divalent ions on cAMP accumulation, MC5R. Format: cell-based, human. As for the experimental part:
(§1) For assessing the effect of divalent ions on cAMP signaling, HEK293T cells were digested with 0.02% (w/v) EDTA and washed three times with calcium/magnesium-free HBSS buffer. Then the cells were resuspended and stimulated with different concentrations of ligands in Ca^2+-free stimulation buffer (the aforementioned stimulation buffer supplemented with 1 mM EGTA), or with additional 2 mM divalent ions in Ca^2+-free stimulation buffer ([divalent ions] = ~1 mM)[38]. The rest of steps were essentially the same as described above.
Background: Cyclic AMP is a second messenger, typically raised through Gs and lowered through Gi signalling.

Experiment [14] relates to MC3R. As to the kind of experiment: Effect of divalent ions on cAMP accumulation, MC3R. Format: cell-based, human. The procedure: as §1
For experiment [15], the system named is MC2R. Put plainly: Effect of divalent ions on cAMP accumulation, MC2R. Format: cell-based. As to conditions: 1 mM Ca^2+ vs divalent ion-free background, HEK293T. As for the experimental part: as §1
Experiment [16] addresses wild-type MC5R on cells (human) (UniProt P33032).
In experiment [17] the target is MC5R mutant D115^3.25A (human) (UniProt P33032).
MC5R mutant D115^3.25A (human), sequence (P33032 other isoform, or with tags, fused parts or gaps mutant): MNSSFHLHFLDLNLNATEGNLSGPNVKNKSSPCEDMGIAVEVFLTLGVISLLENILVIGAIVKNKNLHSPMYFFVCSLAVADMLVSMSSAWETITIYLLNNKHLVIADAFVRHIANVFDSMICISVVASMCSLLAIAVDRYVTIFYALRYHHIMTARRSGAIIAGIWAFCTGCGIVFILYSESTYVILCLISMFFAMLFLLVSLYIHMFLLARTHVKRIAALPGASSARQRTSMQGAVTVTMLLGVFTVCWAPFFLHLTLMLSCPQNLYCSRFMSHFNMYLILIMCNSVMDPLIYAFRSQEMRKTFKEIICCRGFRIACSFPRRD
For experiment [18], the target named is MC5R mutant D119^3.29A (human) (UniProt P33032).
The target in experiment [19] is MC5R mutant F254^6.51A (human) (UniProt P33032).
MC5R mutant F254^6.51A (human), sequence (P33032 other isoform, or with tags, fused parts or gaps mutant): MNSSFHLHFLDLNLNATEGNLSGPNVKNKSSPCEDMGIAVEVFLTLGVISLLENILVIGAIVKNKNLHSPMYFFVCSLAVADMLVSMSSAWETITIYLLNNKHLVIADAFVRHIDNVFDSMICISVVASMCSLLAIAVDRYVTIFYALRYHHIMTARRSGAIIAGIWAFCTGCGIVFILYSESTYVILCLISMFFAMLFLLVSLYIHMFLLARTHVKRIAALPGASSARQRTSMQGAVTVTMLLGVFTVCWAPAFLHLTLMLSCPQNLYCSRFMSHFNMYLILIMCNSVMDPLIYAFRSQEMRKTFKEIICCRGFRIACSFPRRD
The target of experiment [20] is MC3R mutant L128^3.36V (human) (UniProt P41968).
MC3R mutant L128^3.36V (human), sequence (P41968 other isoform, or with tags, fused parts or gaps mutant): as the sequence (P41968 whole entry) above, with L128V counted along it
Experiment [21] has as its target MC5R mutant V126^3.36A (human) (UniProt P33032).
Experiment [22] concerns the target MC5R mutant V126L (human) (UniProt P33032).
Experiment [23] addresses MC3R mutant L128^3.36A (human) (UniProt P41968).
The target in experiment [24] is MC5R mutant D115^3.25A (human) (UniProt P33032). The source holds these as a separate data set.
Experiment [25] addresses MC5R mutant L99^2.67A (human) (UniProt P33032).
For experiment [26], the target named is MC5R mutant F118^3.28A (human) (UniProt P33032).
For experiment [27], the target named is MC5R mutant F254^6.51A (human) (UniProt P33032). The source holds these as a separate data set.

“Also recorded” adds a separate entry of the source. Some results are limits rather than exact numbers.

wild-type MC5R on cells (human), sequence (P33032 whole entry): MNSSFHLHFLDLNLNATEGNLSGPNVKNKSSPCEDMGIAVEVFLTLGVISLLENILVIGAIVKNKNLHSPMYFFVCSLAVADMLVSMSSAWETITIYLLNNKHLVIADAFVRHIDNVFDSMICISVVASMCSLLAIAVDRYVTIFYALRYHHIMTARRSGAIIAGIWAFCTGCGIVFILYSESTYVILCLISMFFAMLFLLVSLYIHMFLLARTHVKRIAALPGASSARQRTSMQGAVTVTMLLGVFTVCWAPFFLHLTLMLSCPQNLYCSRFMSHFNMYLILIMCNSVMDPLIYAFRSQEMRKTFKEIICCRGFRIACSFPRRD
MC3R mutant I265^6.58W (human), sequence (P41968 other isoform, or with tags, fused parts or gaps mutant): as the sequence (P41968 whole entry) above, with I265W counted along it
MC5R mutant V126^3.36A (human), sequence (P33032 other isoform, or with tags, fused parts or gaps mutant): as the sequence (P33032 whole entry) above, with V126A counted along it
MC3R mutant I265^6.58Y (human), sequence (P41968 other isoform, or with tags, fused parts or gaps mutant): as the sequence (P41968 whole entry) above, with I265Y counted along it
MC5R mutant L99^2.67A (human), sequence (P33032 other isoform, or with tags, fused parts or gaps mutant): as the sequence (P33032 whole entry) above, with L99A counted along it
MC3R mutant F258^6.51A (human), sequence (P41968 other isoform, or with tags, fused parts or gaps mutant): as the sequence (P41968 whole entry) above, with F258A counted along it
MC3R mutant L128^3.36A (human), sequence (P41968 other isoform, or with tags, fused parts or gaps mutant): as the sequence (P41968 whole entry) above, with L128A counted along it

Take γ-MSH (peptide): the γ-MSH-induced cAMP accumulation, HEK293T cells; fold decrease of potency against WT in experiment [1] was 4 fold; in experiment [2], 3 fold; in experiment [3], 18 fold; in [5], 30 fold; in experiment [6], 22 fold; in [7] it was 32 fold. Further, the γ-MSH-induced cAMP accumulation, HEK293T cells; fold decrease of potency against WT in experiment [8] was determined as 22 fold. The fold reduction of binding affinity against the wild type in experiment [4] was 48 fold. The same compound showed a γ-MSH-induced cAMP accumulation, HEK293T cells; fold reduction of potency against WT in experiment [9] of 126 fold. Also, the γ-MSH-induced cAMP accumulation, HEK293T cells; fold increase of potency with 1 mM Ca2+ against a divalent ion-free background in experiment [10] turned out to be 407 fold; in experiment [11], 294 fold.
On to adrenocorticotropic hormone (peptide), for which the ACTH-induced cAMP accumulation, HEK293T cells; fold increase of potency with 1 mM Ca2+ against a divalent ion-free background in experiment [12] came out at 6310 fold.
Turning to `[Zn+2]` [Zn^2+, zinc ion], the “effect of Zn^2+ on ligand-induced cAMP response” value in experiment [13] (1 mM Zn^2+, α-MSH or PG-901) is on record as “dramatic reduction of cAMP response; also recorded: inhibited the efficacy”; in experiment [14] (1 mM Zn^2+, γ-MSH) it was “dramatic reduction of cAMP response; also recorded: inhibited the efficacy”.
Consider `[Mg+2]` [Mg^2+, magnesium ion], for which the “effect of Mg^2+ on Gs signaling” value in experiment [13] (1 mM Mg^2+) and in experiment [14] (1 mM Mg^2+) was “neglectable impact; also recorded: little impact” each time.
“adrenocorticotropic hormone (SYSMEHFRWGKPVGKKRRPVKVYPNGAEDESAEAFPLEF; Corticotropin; UniProt P01189 138-176, looked up) [ACTH]”: the “increase of potency by Ca^2+” value in experiment [15] was 6309 fold.
On to α-MSH (peptide), for which the α-MSH-induced cAMP accumulation, HEK293T cells; fold increase of potency with 1 mM Ca2+ against a divalent ion-free background in [16] was determined as 182 fold. Moreover, the α-MSH-induced cAMP accumulation, HEK293T cells; fold decrease of potency against WT is 269 fold in [17] and > 100 fold in [19]. In experiment [18], this compound came in with a α-MSH-induced cAMP accumulation, HEK293T cells; fold reduction against WT of 447 fold.
On to PG-901 (peptide), for which the PG-901-induced cAMP accumulation, HEK293T cells; fold increase of potency with 1 mM Ca2+ against a divalent ion-free background in [16] is 230 fold. Besides, the figures for the PG-901-induced cAMP response, HEK293T cells; EC50 in experiment [20] and in experiment [23] were 32 nM and 250 nM, respectively. Moreover, the PG-901-induced cAMP accumulation, HEK293T cells; fold decrease of potency against WT in experiment [21] worked out at 8 fold; in experiment [27] it was 44 fold. The PG-901-induced cAMP responses, HEK293T cells; fold reduction against WT in [22] was determined as 16 fold. In addition, the PG-901-induced cAMP accumulation, HEK293T cells; fold reduction against WT in experiment [24] is 43 fold; in [25] it was 10 fold; in experiment [26], 4 fold.

For the origin of these results see publication PMC10390531, “Structural insights into ligand recognition and subtype selectivity of the human melanocortin-3 and melanocortin-5 receptors” (Cell Discovery, 2023).
